This is an account of results in patent US7314919.

The target in this assay is His-tagged recombinant full-length HCV NS3 protein (aa 1027 to aa 1657 of the HCV polyprotein, 1b genotype), purified from E. coli (hepatitis C virus, 1b genotype). Description: cell-based or functional assay.

B1: Human recombinant anti-NS3 Fab (HFab-aNS3) (Fab, V domains shown)
VH: LEESGGGLVKPGGSLRLSCVASGLTFSRYNMQWVRQAPGKGLEWVASISTSGVYIYYADSVTGRFTISRDNSKNSLYLQMNSLGAEDTAVYYCARDLTFLCGGDCLQPWGQG
VL: AELTQSPSSLSASVGDRVTITCRASQGISRYLAWFQQRPGKAPKSLIYAASHLQSGVPSRFSASGSGTEFTLSISSLQPEDFATYYCQQYDTYPYTFGQGTKLEIKR
Take B1: the inhibition of NTPase activity was found to be 15% and the inhibition of helicase activity turned out to be 54%.
